Measurements taken from doi:10.1101/537159 (bioRxiv, 2019).

Assays:
[1] = biological target: D382Y human β-cardiac myosin 2-hep HMM (human, UniProt P12883 1-855; P08590 1-195; P10916 1-166, D382Y); assay: MST
[2] = biological target: R719W human β-cardiac myosin 2-hep HMM (human, UniProt P12883 1-855; P08590 1-195; P10916 1-166, R719W); assay: MST
Chain of R719W human β-cardiac myosin 2-hep HMM (P12883 1-855 R719W, chain 1 of 3): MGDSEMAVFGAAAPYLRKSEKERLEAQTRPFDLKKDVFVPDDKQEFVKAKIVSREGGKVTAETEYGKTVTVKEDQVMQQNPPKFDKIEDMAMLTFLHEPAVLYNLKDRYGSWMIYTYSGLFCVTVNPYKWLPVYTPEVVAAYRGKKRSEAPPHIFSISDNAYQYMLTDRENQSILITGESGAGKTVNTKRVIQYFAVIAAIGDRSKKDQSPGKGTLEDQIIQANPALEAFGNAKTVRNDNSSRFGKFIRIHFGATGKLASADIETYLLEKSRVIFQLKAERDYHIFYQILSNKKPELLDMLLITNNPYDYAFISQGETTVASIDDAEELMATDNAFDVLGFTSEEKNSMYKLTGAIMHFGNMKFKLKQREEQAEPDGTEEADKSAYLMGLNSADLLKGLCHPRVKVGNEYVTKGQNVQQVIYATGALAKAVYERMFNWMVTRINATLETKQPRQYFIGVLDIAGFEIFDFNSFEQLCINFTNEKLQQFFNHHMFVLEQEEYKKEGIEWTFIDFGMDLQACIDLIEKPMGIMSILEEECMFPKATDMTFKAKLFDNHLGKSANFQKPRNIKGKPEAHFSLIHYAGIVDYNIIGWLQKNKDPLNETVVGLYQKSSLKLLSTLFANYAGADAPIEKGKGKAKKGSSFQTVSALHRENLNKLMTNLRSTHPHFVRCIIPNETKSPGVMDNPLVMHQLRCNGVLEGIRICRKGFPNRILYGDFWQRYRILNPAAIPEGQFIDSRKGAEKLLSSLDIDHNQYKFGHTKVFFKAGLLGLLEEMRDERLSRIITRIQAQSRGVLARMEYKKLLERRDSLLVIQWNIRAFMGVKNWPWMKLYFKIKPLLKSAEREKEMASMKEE
Chain of R719W human β-cardiac myosin 2-hep HMM (P08590 whole entry, chain 2 of 3): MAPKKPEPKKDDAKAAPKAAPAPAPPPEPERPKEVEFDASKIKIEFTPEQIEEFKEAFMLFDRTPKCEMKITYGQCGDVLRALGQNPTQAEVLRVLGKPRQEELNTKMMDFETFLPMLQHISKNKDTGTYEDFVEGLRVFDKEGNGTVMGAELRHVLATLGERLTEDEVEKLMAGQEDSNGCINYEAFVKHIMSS
Chain of R719W human β-cardiac myosin 2-hep HMM (P10916 whole entry, chain 3 of 3): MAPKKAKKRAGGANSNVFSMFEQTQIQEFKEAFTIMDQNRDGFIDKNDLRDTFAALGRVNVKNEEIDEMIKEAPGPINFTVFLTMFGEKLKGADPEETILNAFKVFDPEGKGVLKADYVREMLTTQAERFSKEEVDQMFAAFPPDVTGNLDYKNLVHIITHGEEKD

Chain of D382Y human β-cardiac myosin 2-hep HMM (P12883 1-855 D382Y, chain 1 of 3): as the sequence (P12883 1-855 R719W, chain 1 of 3) above, with D382Y, W719R counted along it
Chain of D382Y human β-cardiac myosin 2-hep HMM (P08590 whole entry, chain 2 of 3): as the sequence (P08590 whole entry, chain 2 of 3) above
Chain of D382Y human β-cardiac myosin 2-hep HMM (P10916 whole entry, chain 3 of 3): as the sequence (P10916 whole entry, chain 3 of 3) above

- fold change of affinity against WT 2-hep HMM [1]: < 2 fold
- fold change of affinity against WT 2-hep HMM [2]: < 2 fold
B1: proximal S2 (amino acids 839-968) (domain or fragment, human, UniProt P12883 839-968, looked up)
chain: LLKSAEREKEMASMKEEFTRLKEALEKSEARRKELEEKMVSLLQEKNDLQLQVQAEQDNLADAEERCDQLIKNKIQLEAKVKEMNERLEDEEEMNAELTAKKRKLEDECSELKRDIDDLELTLAKVEKEK
